According to article PMC7353164:

Target: Tim21HA (yeast) (UniProt P53220)
Assay: co-IP

Sequence of UniProt P53220 (P53220 71-239): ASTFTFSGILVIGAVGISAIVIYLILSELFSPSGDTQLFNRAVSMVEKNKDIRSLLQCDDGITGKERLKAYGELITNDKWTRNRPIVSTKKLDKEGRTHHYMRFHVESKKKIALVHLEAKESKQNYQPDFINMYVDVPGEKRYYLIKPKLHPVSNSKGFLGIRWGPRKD

percent reduction of co-precipitation against wild type: 50%
Substance: Mgr2 G26L (from UniProt Q02889 1-113) (natural protein)
